Measured values taken from publication PMC10897342, “An octameric PqiC toroid stabilises the outer-membrane interaction of the PqiABC transport system” (EMBO Reports, 2024).
Values belong to the binder of their own block, whether it stands above or below them.

Assays:
[1] = target: the molecule itself; assay: crystal structure; PqiC-His in DDM; 3.2 Å; two chains in the asymmetric unit, octameric toroid by the symmetry of the unit cell; interface analysed with PDBePISA
[2] = target: T1, PqiB (residues 1–546) with a C-terminal hexa-histidine tag, of the PqiAB construct (E. coli, UniProt P43671 1-546); assay: QCM-D; PqiC-Strep in a supported DMPC bilayer on a silicon sensor; PqiAB-DMPC proteoliposomes flowed over, then buffer; 25 °C, 0.1 mL/min; 20 mM Bis-Tris Propane, 150 mM NaCl, pH 8.5; details: both partners purified
T1 construct: PqiB, periplasm-spanning MCE family protein of E. coli, residues 1–546; Always present together with PqiA in the experiments; also called hexameric PqiB; source: E. coli C43 (DE3), co-expressed with PqiA, purified (Ni-NTA, SEC) in DDM, reconstituted into DMPC proteoliposomes; not shown: His6, C-terminal, kept
T1 sequence (looked up): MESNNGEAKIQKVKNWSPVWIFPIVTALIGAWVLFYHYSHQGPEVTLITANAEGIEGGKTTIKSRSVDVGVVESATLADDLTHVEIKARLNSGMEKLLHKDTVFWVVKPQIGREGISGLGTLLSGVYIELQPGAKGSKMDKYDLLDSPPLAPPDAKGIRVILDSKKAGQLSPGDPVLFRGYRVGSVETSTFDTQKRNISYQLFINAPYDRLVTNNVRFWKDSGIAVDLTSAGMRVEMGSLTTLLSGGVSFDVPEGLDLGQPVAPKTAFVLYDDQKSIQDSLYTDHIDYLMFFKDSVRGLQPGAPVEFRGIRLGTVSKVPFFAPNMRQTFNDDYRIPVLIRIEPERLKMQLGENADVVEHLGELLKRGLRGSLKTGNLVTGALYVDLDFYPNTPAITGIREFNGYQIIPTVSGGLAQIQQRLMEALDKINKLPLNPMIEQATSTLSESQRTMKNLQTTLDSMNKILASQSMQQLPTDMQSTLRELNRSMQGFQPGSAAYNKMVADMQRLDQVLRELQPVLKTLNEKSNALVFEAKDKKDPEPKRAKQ

[3] = target: T2, PqiAB subcomplex (PqiA residues 1–417 and PqiB residues 1–546, C-terminal hexa-histidine tag) (E. coli, UniProt P0AFL9 1-417; P43671 1-546); assay: neutron reflectometry; PqiC in a supported dDMPC bilayer on silicon; PqiAB-DMPC proteoliposomes (0.01 mg/mL PqiAB) incubated 30 minutes, washed; 20 mM BTP, 150 mM NaCl, pH 8.5; 25 °C; isotopic contrast variation; details: both partners purified
T2 construct: PqiA, integral inner membrane protein of E. coli, residues 1–417; PqiB, periplasm-spanning MCE family protein of E. coli, residues 1–546; also called purified PqiAB subcomplex; PqiAB-proteoliposomes; copies: + 6
T2 sequence (looked up) 1: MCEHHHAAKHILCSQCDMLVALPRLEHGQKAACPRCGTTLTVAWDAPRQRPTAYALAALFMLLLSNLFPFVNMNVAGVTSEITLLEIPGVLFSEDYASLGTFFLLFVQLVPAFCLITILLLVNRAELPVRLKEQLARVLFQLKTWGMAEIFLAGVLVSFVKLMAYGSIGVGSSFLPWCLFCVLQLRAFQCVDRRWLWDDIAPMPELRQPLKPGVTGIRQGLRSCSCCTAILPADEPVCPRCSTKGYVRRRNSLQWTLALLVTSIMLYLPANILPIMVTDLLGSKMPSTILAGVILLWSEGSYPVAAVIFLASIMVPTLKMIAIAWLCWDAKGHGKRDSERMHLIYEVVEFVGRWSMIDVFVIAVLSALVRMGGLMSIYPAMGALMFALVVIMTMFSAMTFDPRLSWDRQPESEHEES
T2 sequence (looked up) 2: T1 sequence (looked up)

B1: E. coli PqiC (residues 1–187) with a C-terminal hexa-histidine tag (natural protein, UniProt P0AB10 16-187, looked up)
chain: CSSGEINKNYYQLPVVQSGTQSTASQGNRLLWVEQVTVPDYLAGNGVVYQTSDVKYVIANNNLWASPLDQQLRNTLVANLSTQLPGWVVASQPLGSAQDTLNVTVTEFNGRYDGKVIVSGEWLLNHQGQLIKRPFRLEGVQTQDGYDEMVKVLAGVWSQEAASIAQEIKRLP
modifications: N-terminally acylated Cysteine (C16); the construct is 'presumably processed and lipidated in the same manner as the native lipoprotein'
notes: signal peptide in the construct; the N-terminal signal peptide is called residues 1–16 in the methods, while the mature lipoprotein is said to begin at the acylated C16; Octamer by the crystal's symmetry (two chains in the asymmetric unit); also called native PqiC; full length PqiC; source: E. coli C43 (DE3), membrane fraction solubilised in DDM, purified (Ni-NTA, SEC)
stoichiometry N [1]: 8

binding result [2]: binds
binding result [3]: binds
B2: PqiC-Strep, E. coli PqiC residues 1–186 with a C-terminal StrepTag II (natural protein, UniProt P0AB10 16-186, looked up)
chain: CSSGEINKNYYQLPVVQSGTQSTASQGNRLLWVEQVTVPDYLAGNGVVYQTSDVKYVIANNNLWASPLDQQLRNTLVANLSTQLPGWVVASQPLGSAQDTLNVTVTEFNGRYDGKVIVSGEWLLNHQGQLIKRPFRLEGVQTQDGYDEMVKVLAGVWSQEAASIAQEIKRL
modifications: lipidation of Cys16 (the paper: 'a native PqiC construct was used')
notes: signal peptide in the construct; Stood in a supported DMPC bilayer on a silicon surface; also called PqiC (in QCM-D and NR); surface-tethered PqiC octamer
